This note sets out measurements from paper PMC5617202, “Structural and functional insights into the reaction specificity of catalase-related hydroperoxide lyase: A shift from lyase activity to allene oxide synthase by site-directed mutagenesis” (PLoS ONE, 2017).

Series [1] has as its target T1, C. imbricata cHPL (catalase-related hydroperoxide lyase domain) (Capnella imbricata, UniProt W8JJ08).
T1 construct: gene AOS-LOXb; N-terminal cHPL domain of the HPL-LOX fusion protein, without the LOX domain; cHPL-His4 in pET11a; E. coli BL21(DE3), Ni-NTA; heme protein; monomer 45 kDa plus oligomers 440-670 kDa
The series can be described thus: RP-HPLC radiometric product analysis. The series is classed as biochemical. Particulars: 20 μM [1-14C]-AA-derived 8R-HpETE; labelled compound.

Substrate in the series “purified protein”: CCCCC/C=C\C/C=C\C=C\[C@@H](C/C=C\CCCC(=O)O)OO
As to the kind of experiment: purified protein. Conditions: 50 mM Tris pH 8.0, 100 mM NaCl, 1 mM CaCl2, 20 °C, 5–50 μM substrate. The series is classed as biochemical, Capnella imbricata.

Changes are numbered by the printed parent chain. Numbers in names are those of the source.

T1 sequence (W8JJ08 entry or part of it): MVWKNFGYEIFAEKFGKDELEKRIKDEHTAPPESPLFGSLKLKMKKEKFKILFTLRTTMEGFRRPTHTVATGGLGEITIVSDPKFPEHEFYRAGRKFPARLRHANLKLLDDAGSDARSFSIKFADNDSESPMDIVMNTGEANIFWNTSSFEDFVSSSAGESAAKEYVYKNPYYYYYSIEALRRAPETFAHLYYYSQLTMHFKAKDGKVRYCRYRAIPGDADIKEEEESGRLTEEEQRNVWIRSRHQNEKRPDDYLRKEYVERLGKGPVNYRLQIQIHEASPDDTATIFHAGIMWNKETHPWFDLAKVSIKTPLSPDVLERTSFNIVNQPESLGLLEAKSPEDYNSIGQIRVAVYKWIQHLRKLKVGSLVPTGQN

In the case of `CCCCC/C=C\C/C=C\C=C\[C@@H](C/C=C\CCCC(=O)O)OO` [8R-HpETE], the “RP-HPLC radiometric product analysis” value in series [1] was “Wt cHPL catalyzes the formation of C8-oxo acid and C12 aldehyde”.

B1: C. imbricata cAOS (cAOS-H4 domain) (Capnella imbricata) (protein)
chain: MTWKNFGFDIFAERFGKDKLEKRIKDERTPPPDSPVFGGLTLRMKIEKFKTLFTLGTTLKGFRRATHTVGTGGIGEVTVVDDPKFPEHEFFKAGRKLPVRLRHANLKYPDDAGADARSFSIKFSDNDSESPLDIVMNTGEANIFWHTSSLEDFVPVKEGDSAKEYVYKNPYYYYNLVEALRRAPNTFAHLYYYSQVTMHFKAKDGKERYCRYRAIPGDVDIKEEEESGRLTEEEQRNIWTFSRYETEKRPDDYLRKEYVERLKKGPVNYRLQIQIHDVSPNDTATIFHAGILWDKETHPWFDLAKVSITTPMSPDVLERTNFNIVNQPKSLGLLDAKSPEDYNSIGQIRVSVYNWVQHLRKLKLGSLIPAGQN
notes: N-terminal cAOS domain of the AOS-LOX fusion protein, without the LOX domain; cAOS-H4 (His4 tag) in pET11a; E. coli BL21(DE3), Ni-NTA; heme protein; monomer
In the case of B1, in the series “purified protein”, the Km was 46.6 ± 9.0 µM, the kcat came to 1840 ± 196 s⁻¹ and the kcat/Km was found to be 3.94e+07 M⁻¹ s⁻¹.

B2: C. imbricata cAOS (cAOS-H4 domain) (Capnella imbricata; L150F) (protein)
chain: B1 chain with L150F
notes: as for B1
Turning to B2, in “purified protein”, the Michaelis constant (Km) was 6.7 ± 1.0 µM, the kcat came to 203 ± 8.1 s⁻¹ and the specificity constant (kcat/Km) came out at 3.03e+07 M⁻¹ s⁻¹.

B3: C. imbricata cHPL (catalase-related hydroperoxide lyase domain) (Capnella imbricata; S177L/Y176N) (protein)
chain: MVWKNFGYEIFAEKFGKDELEKRIKDEHTAPPESPLFGSLKLKMKKEKFKILFTLRTTMEGFRRPTHTVATGGLGEITIVSDPKFPEHEFYRAGRKFPARLRHANLKLLDDAGSDARSFSIKFADNDSESPMDIVMNTGEANIFWNTSSFEDFVSSSAGESAAKEYVYKNPYYYYNLIEALRRAPETFAHLYYYSQLTMHFKAKDGKVRYCRYRAIPGDADIKEEEESGRLTEEEQRNVWIRSRHQNEKRPDDYLRKEYVERLGKGPVNYRLQIQIHEASPDDTATIFHAGIMWNKETHPWFDLAKVSIKTPLSPDVLERTSFNIVNQPESLGLLEAKSPEDYNSIGQIRVAVYKWIQHLRKLKVGSLVPTGQN
notes: N-terminal cHPL domain of the HPL-LOX fusion protein, without the LOX domain; cHPL-His4 in pET11a; E. coli BL21(DE3), Ni-NTA; heme protein; monomer 45 kDa plus oligomers 440-670 kDa
Regarding B3, in the series “purified protein”, the Michaelis-Menten constant (Km) came to 3.9 ± 0.9 µM, the kcat turned out to be 218 ± 13.8 s⁻¹ and the catalytic efficiency (kcat/Km) worked out at 5.6e+07 M⁻¹ s⁻¹.

B4: C. imbricata cHPL (catalase-related hydroperoxide lyase domain) (Capnella imbricata; P65A) (protein)
chain: B3 chain with P65A, N176Y, L177S
notes: as for B3
In the case of B4, in “purified protein”, the Km was 15.3 ± 2.5 µM, the kcat was 40.3 ± 2.5 s⁻¹ and the kcat/Km stood at 2.6e+06 M⁻¹ s⁻¹.

B5: C. imbricata cHPL (catalase-related hydroperoxide lyase domain) (Capnella imbricata; R56G) (protein)
chain: B3 chain with R56G, N176Y, L177S
notes: as for B3
Turning to B5, in the series “purified protein”, the Km came out at 19.0 ± 4.0 µM, the catalytic constant (kcat) turned out to be 304 ± 22.8 s⁻¹ and the kcat/Km was 1.6e+07 M⁻¹ s⁻¹.

B6: C. imbricata cHPL (catalase-related hydroperoxide lyase domain) (Capnella imbricata; I357V) (protein)
chain: B3 chain with N176Y, L177S, I357V
notes: as for B3
Regarding B6, in the series “purified protein”, the Michaelis constant (Km) was determined as 5.0 ± 1.0 µM, the kcat came to 63.9 ± 3.2 s⁻¹ and the kcat/Km stood at 1.28e+07 M⁻¹ s⁻¹.

B7: C. imbricata cHPL (catalase-related hydroperoxide lyase domain) (Capnella imbricata; E60K/M59L) (protein)
chain: B3 chain with M59L, E60K, N176Y, L177S
notes: as for B3
B7: in the series “purified protein”, the Km was 7.3 ± 1.9 µM, the kcat was determined as 7.5 ± 0.6 s⁻¹ and the kcat/Km stood at 1e+06 M⁻¹ s⁻¹.

B8: C. imbricata cHPL (catalase-related hydroperoxide lyase domain) (Capnella imbricata; F150L) (protein)
chain: B3 chain with F150L, N176Y, L177S
notes: as for B3
Turning to B8, in the series “purified protein”, the Michaelis-Menten constant (Km) is 1.8 ± 0.4 µM, the kcat was determined as 49.6 ± 1.5 s⁻¹ and the kcat/Km was 2.76e+07 M⁻¹ s⁻¹.
